How the values were obtained:
[1] = molecular target: Candida albicans triosephosphate isomerase (Tpi1) (Candida albicans (strain ATCC 10231)) (UniProt Q9P940); assay: SPR; Biacore 3000, Tpi1 amine-coupled to a CM5 chip (ca. 150 RU), human ECM proteins 50-750 nM injected; 10 mM HEPES, 150 mM NaCl, 0.005 % P20, pH 7.4; 1:1 Langmuir model, global or local fit
[2] = molecular target: Candida glabrata triosephosphate isomerase (Tpi1) (Candida glabrata (strain CBS138, ATCC 2001)) (UniProt Q6FRI3); assay: as above
human collagen (human) = assay: ELISA; microplate-based protein-binding assay: human ECM proteins coated (3 pmoles per well, MaxiSorp, overnight 4 °C), biotin-labelled Tpi1 10-800 nM in PBS, 1.5 h at 37 °C, SA-HRP/TMB detection; apparent KD
[3] = molecular target: human ECM proteins tested in the microplate-based protein-binding assay (Fig. 5); assay: as above
human elastin = molecular target: T1, human elastin (human, UniProt P15502 27-786); assay: SPR; Biacore 3000, Tpi1 amine-coupled to a CM5 chip (ca. 150 RU), human ECM proteins 50-750 nM injected; 10 mM HEPES, 150 mM NaCl, 0.005 % P20, pH 7.4; 1:1 Langmuir model, global or local fit; details: both partners purified
T1 construct: elastin, human; No catalogue number printed; a commercial soluble elastin may be a cross-linked or hydrolysed tissue preparation; source: bought: Sigma-Aldrich
T1 sequence (looked up): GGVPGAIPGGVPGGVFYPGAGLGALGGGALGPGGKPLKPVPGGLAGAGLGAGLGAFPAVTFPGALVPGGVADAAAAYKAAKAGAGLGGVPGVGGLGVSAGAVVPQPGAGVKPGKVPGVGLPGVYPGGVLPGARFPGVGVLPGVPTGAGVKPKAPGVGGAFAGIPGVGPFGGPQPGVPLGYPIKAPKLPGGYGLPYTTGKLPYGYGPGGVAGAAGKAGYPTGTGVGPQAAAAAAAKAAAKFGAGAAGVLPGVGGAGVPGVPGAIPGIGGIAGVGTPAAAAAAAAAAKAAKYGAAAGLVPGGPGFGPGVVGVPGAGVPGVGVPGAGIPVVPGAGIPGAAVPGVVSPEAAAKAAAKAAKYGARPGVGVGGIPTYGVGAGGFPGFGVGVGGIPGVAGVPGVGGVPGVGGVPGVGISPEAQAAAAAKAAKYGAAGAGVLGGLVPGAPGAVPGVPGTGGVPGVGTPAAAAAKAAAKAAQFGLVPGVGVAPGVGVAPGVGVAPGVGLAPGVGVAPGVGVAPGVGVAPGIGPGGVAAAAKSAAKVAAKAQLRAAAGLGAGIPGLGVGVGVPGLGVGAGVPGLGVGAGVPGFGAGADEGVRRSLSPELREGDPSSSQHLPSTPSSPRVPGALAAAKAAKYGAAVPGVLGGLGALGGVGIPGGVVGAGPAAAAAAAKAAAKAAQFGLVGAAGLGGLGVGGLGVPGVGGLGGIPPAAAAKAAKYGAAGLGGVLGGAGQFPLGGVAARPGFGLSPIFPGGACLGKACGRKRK

human vitronectin [4] = molecular target: T2, human vitronectin (human, UniProt P04004 20-478, biotin (NHS-biotin) in the whole-cell assay only; sulfo-SDAD on amino groups in the cross-linking experiment); assay: as above; details: both partners purified
T2 construct: vitronectin, human; UniProt ID printed for the modelling only (there: vitronectin V65 subunit); No catalogue number printed; also called VTR; source: bought: R&D Systems
T2 sequence (P04004 20-478): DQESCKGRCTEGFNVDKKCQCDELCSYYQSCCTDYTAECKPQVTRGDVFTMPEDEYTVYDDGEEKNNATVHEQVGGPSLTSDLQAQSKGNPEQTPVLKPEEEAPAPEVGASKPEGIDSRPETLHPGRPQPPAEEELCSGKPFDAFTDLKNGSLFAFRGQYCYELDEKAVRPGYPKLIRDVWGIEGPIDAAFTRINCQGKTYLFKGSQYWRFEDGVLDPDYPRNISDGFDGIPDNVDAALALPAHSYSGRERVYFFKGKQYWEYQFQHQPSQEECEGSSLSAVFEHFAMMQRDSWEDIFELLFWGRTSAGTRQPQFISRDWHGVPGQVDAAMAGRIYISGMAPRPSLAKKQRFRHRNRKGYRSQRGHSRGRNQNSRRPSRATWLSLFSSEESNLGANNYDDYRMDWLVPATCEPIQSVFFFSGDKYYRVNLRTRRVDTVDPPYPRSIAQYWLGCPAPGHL

human vitronectin [5] = molecular target: T2, human vitronectin; assay: ELISA; microplate-based protein-binding assay: human ECM proteins coated (3 pmoles per well, MaxiSorp, overnight 4 °C), biotin-labelled Tpi1 10-800 nM in PBS, 1.5 h at 37 °C, SA-HRP/TMB detection; apparent KD; details: both partners purified

| Molecule | Kd [1] [nM] | koff [1] [s⁻¹] | kon [1] [M⁻¹ s⁻¹] | Kd [2] [nM] | koff [2] [s⁻¹] | kon [2] [M⁻¹ s⁻¹] | Kd (human collagen (human)) [nM] | Kd [3] [nM] | Kd (human elastin) [nM] | koff (human elastin) [s⁻¹] | kon (human elastin) [M⁻¹ s⁻¹] | Kd (human vitronectin [4]) [nM] | koff (human vitronectin [4]) [s⁻¹] | kon (human vitronectin [4]) [M⁻¹ s⁻¹] | Kd (human vitronectin [5]) [nM] |
| --- | --- | --- | --- | --- | --- | --- | --- | --- | --- | --- | --- | --- | --- | --- | --- |
| human fibronectin (from UniProt P02751 32-2477) (natural protein) | 326 | 0.0105 | 32200 | 730 | 0.0473 | 64800 | – | – | – | – | – | – | – | – | – |
| human laminin (complex) | 739 | 0.0327 | 44200 | 253 | 0.00339 | 13400 | – | – | – | – | – | – | – | – | – |
| human collagen (natural protein) | 109 | 0.00199 | 18200 | 214 | 0.00308 | 14400 | – | – | – | – | – | – | – | – | – |
| Candida glabrata triosephosphate isomerase (Tpi1) (enzyme, biotin (NHS-biotin) in the microplate assay; unlabelled in SPR and on cells, triosephosphate isomerase Tpi1 of Candida glabrata, native protein isolated from the cell wall; identifier not given; Native protein, enzymatically active, no attached sugars found; also called C. glabrata Tpi1; source: also endogenous, on live C. glabrata cells) MARTFFVGGNFKLNGTKKSIKEIVDRLNTASLPENVEVVICPPATYLDYTVSLVSKKQVTVGGQNTYTKASGAYTGENSVDQLKDVGAKWVILGHSERRTYFHEDDKIVAEKTKFALDQGLGVILCIGETLEEKKAGVTLKVVERQLDAVIAEVKDWTNVVIAYEPVWAIGTGLAATAEDAQDIHHSIRSYLAEKLGKDTAEKTRILYGGSANGANAGTFKDKADVDGFLVGGASLKPEFVDIINSRN | – | – | – | – | – | – | 1000 | 100 | 20.1 | 0.00191 | 95100 | 168 | 0.0031 | 18400 | – |
| Candida albicans triosephosphate isomerase (Tpi1) (enzyme, biotin (NHS-biotin) in the microplate assays; unlabelled in SPR, cross-linking and on cells, triosephosphate isomerase Tpi1 of Candida albicans, native protein isolated from the cell wall; the UniProt ID is printed for the molecular modelling; Native protein, enzymatically active, no attached sugars found; The strain used (ATCC 10231) may differ from the strain of the UniProt entry; Modelled as a dimer, oligomeric state not measured here; also called C. albicans Tpi1; source: also …) MARQFFVGGNFKANGTKQQITSIIDNLNKADLPKDVEVVICPPALYLGLAVEQNKQPTVAIGAQNVFDKSCGAFTGETCASQILDVGASWTLTGHSERRTIIKESDEFIAEKTKFALDTGVKVILCIGETLEERKGGVTLDVCARQLDAVSKIVSDWSNIVVAYEPVWAIGTGLAATPEDAEETHKGIRAHLAKSIGAEQAEKTRILYGGSVNGKNAKDFKDKANVDGFLVGGASLKPEFVDIIKSRL | – | – | – | – | – | – | – | – | 821 | 0.0382 | 46500 | 86 | 0.00877 | 102000 | ~10 |

Reference: publication PMC8252264, “Candida albicans and Candida glabrata triosephosphate isomerase – a moonlighting protein that can be exposed on the candidal cell surface and bind to human extracellular matrix proteins” (BMC Microbiology, 2021)
